Data as given in US8969060B2, “Modified glucose dehydrogenase” (Ikeda Food Research Co., Ltd., priority 2011, dated 2015).

B1: D343S: modified GLD: SEQ ID NO: 1 with substitution D343S (protein, listed as Aspergillus terreus)
chain: MLGKLSFLSALSLAVAAPLSNSTSAKYDYIVIGGGTSGLAVANRLSEDPNVNVLILEAGGSVWNNPNVTNVDGYGLAFGSDIDWQYQSVNQPYGGNLSQVLRAGKALGGTSTINGMAYTRAEDVQIDAWETIGNTGWTWKNLFPYYRKSENFTVPTKSQTSLGASYEAGAHGHEGPLDVAFTQIESNNLTTYLNRTFQGMGLPWTEDVNGGKMRGFNLYPSTVNLEEYVREDAARAYYWPYKSRPNLHVLLNTFANRIVWDGEAHDGHITASGVEITSRNGTVRVINAEKEVIVSAGALKSPAILELSGIGNPSVLDKHNIPVKVNLPTVGENLQDQVNSHMSASGNTSISGTKAVSYPDVYDVFGDEAESVAKQIRANLKQYAADTAKANGNIMKAADLERLFEVQYDLIFKGRVPIAEVLNYPGSATSVFAEFWALLPFARGSVHIGSSNPAEFPVINPNYFMLDWDAKSYVAVAKYIRRSFESYPLSSIVKESTPGYDVIPRNASEQSWKEWVFDKNYRSNFHPVGTAAMMPREIGGVVDERLNVYGTTNVRVVDASVLPFQVCGHLVSTLYAVAERAADLIKADAGRR
modifications: SIGNAL (1)..(19)
B2: D343W: modified GLD: SEQ ID NO: 1 with substitution D343W (protein, listed as Aspergillus terreus)
chain: MLGKLSFLSALSLAVAAPLSNSTSAKYDYIVIGGGTSGLAVANRLSEDPNVNVLILEAGGSVWNNPNVTNVDGYGLAFGSDIDWQYQSVNQPYGGNLSQVLRAGKALGGTSTINGMAYTRAEDVQIDAWETIGNTGWTWKNLFPYYRKSENFTVPTKSQTSLGASYEAGAHGHEGPLDVAFTQIESNNLTTYLNRTFQGMGLPWTEDVNGGKMRGFNLYPSTVNLEEYVREDAARAYYWPYKSRPNLHVLLNTFANRIVWDGEAHDGHITASGVEITSRNGTVRVINAEKEVIVSAGALKSPAILELSGIGNPSVLDKHNIPVKVNLPTVGENLQDQVNSHMWASGNTSISGTKAVSYPDVYDVFGDEAESVAKQIRANLKQYAADTAKANGNIMKAADLERLFEVQYDLIFKGRVPIAEVLNYPGSATSVFAEFWALLPFARGSVHIGSSNPAEFPVINPNYFMLDWDAKSYVAVAKYIRRSFESYPLSSIVKESTPGYDVIPRNASEQSWKEWVFDKNYRSNFHPVGTAAMMPREIGGVVDERLNVYGTTNVRVVDASVLPFQVCGHLVSTLYAVAERAADLIKADAGRR
modifications: SIGNAL (1)..(19)
B3: D343Y: modified GLD: SEQ ID NO: 1 with substitution D343Y (protein, listed as Aspergillus terreus)
chain: MLGKLSFLSALSLAVAAPLSNSTSAKYDYIVIGGGTSGLAVANRLSEDPNVNVLILEAGGSVWNNPNVTNVDGYGLAFGSDIDWQYQSVNQPYGGNLSQVLRAGKALGGTSTINGMAYTRAEDVQIDAWETIGNTGWTWKNLFPYYRKSENFTVPTKSQTSLGASYEAGAHGHEGPLDVAFTQIESNNLTTYLNRTFQGMGLPWTEDVNGGKMRGFNLYPSTVNLEEYVREDAARAYYWPYKSRPNLHVLLNTFANRIVWDGEAHDGHITASGVEITSRNGTVRVINAEKEVIVSAGALKSPAILELSGIGNPSVLDKHNIPVKVNLPTVGENLQDQVNSHMYASGNTSISGTKAVSYPDVYDVFGDEAESVAKQIRANLKQYAADTAKANGNIMKAADLERLFEVQYDLIFKGRVPIAEVLNYPGSATSVFAEFWALLPFARGSVHIGSSNPAEFPVINPNYFMLDWDAKSYVAVAKYIRRSFESYPLSSIVKESTPGYDVIPRNASEQSWKEWVFDKNYRSNFHPVGTAAMMPREIGGVVDERLNVYGTTNVRVVDASVLPFQVCGHLVSTLYAVAERAADLIKADAGRR
modifications: SIGNAL (1)..(19)
B4: D343V: modified GLD: SEQ ID NO: 1 with substitution D343V (protein, listed as Aspergillus terreus)
chain: MLGKLSFLSALSLAVAAPLSNSTSAKYDYIVIGGGTSGLAVANRLSEDPNVNVLILEAGGSVWNNPNVTNVDGYGLAFGSDIDWQYQSVNQPYGGNLSQVLRAGKALGGTSTINGMAYTRAEDVQIDAWETIGNTGWTWKNLFPYYRKSENFTVPTKSQTSLGASYEAGAHGHEGPLDVAFTQIESNNLTTYLNRTFQGMGLPWTEDVNGGKMRGFNLYPSTVNLEEYVREDAARAYYWPYKSRPNLHVLLNTFANRIVWDGEAHDGHITASGVEITSRNGTVRVINAEKEVIVSAGALKSPAILELSGIGNPSVLDKHNIPVKVNLPTVGENLQDQVNSHMVASGNTSISGTKAVSYPDVYDVFGDEAESVAKQIRANLKQYAADTAKANGNIMKAADLERLFEVQYDLIFKGRVPIAEVLNYPGSATSVFAEFWALLPFARGSVHIGSSNPAEFPVINPNYFMLDWDAKSYVAVAKYIRRSFESYPLSSIVKESTPGYDVIPRNASEQSWKEWVFDKNYRSNFHPVGTAAMMPREIGGVVDERLNVYGTTNVRVVDASVLPFQVCGHLVSTLYAVAERAADLIKADAGRR
modifications: SIGNAL (1)..(19)
B5: V338M: modified GLD: SEQ ID NO: 1 with substitution V338M (protein, listed as Aspergillus terreus)
chain: MLGKLSFLSALSLAVAAPLSNSTSAKYDYIVIGGGTSGLAVANRLSEDPNVNVLILEAGGSVWNNPNVTNVDGYGLAFGSDIDWQYQSVNQPYGGNLSQVLRAGKALGGTSTINGMAYTRAEDVQIDAWETIGNTGWTWKNLFPYYRKSENFTVPTKSQTSLGASYEAGAHGHEGPLDVAFTQIESNNLTTYLNRTFQGMGLPWTEDVNGGKMRGFNLYPSTVNLEEYVREDAARAYYWPYKSRPNLHVLLNTFANRIVWDGEAHDGHITASGVEITSRNGTVRVINAEKEVIVSAGALKSPAILELSGIGNPSVLDKHNIPVKVNLPTVGENLQDQMNSHMDASGNTSISGTKAVSYPDVYDVFGDEAESVAKQIRANLKQYAADTAKANGNIMKAADLERLFEVQYDLIFKGRVPIAEVLNYPGSATSVFAEFWALLPFARGSVHIGSSNPAEFPVINPNYFMLDWDAKSYVAVAKYIRRSFESYPLSSIVKESTPGYDVIPRNASEQSWKEWVFDKNYRSNFHPVGTAAMMPREIGGVVDERLNVYGTTNVRVVDASVLPFQVCGHLVSTLYAVAERAADLIKADAGRR
modifications: SIGNAL (1)..(19)
B6: A298V: modified GLD: SEQ ID NO: 1 with substitution A298V (protein, listed as Aspergillus terreus)
chain: MLGKLSFLSALSLAVAAPLSNSTSAKYDYIVIGGGTSGLAVANRLSEDPNVNVLILEAGGSVWNNPNVTNVDGYGLAFGSDIDWQYQSVNQPYGGNLSQVLRAGKALGGTSTINGMAYTRAEDVQIDAWETIGNTGWTWKNLFPYYRKSENFTVPTKSQTSLGASYEAGAHGHEGPLDVAFTQIESNNLTTYLNRTFQGMGLPWTEDVNGGKMRGFNLYPSTVNLEEYVREDAARAYYWPYKSRPNLHVLLNTFANRIVWDGEAHDGHITASGVEITSRNGTVRVINAEKEVIVSAGVLKSPAILELSGIGNPSVLDKHNIPVKVNLPTVGENLQDQVNSHMDASGNTSISGTKAVSYPDVYDVFGDEAESVAKQIRANLKQYAADTAKANGNIMKAADLERLFEVQYDLIFKGRVPIAEVLNYPGSATSVFAEFWALLPFARGSVHIGSSNPAEFPVINPNYFMLDWDAKSYVAVAKYIRRSFESYPLSSIVKESTPGYDVIPRNASEQSWKEWVFDKNYRSNFHPVGTAAMMPREIGGVVDERLNVYGTTNVRVVDASVLPFQVCGHLVSTLYAVAERAADLIKADAGRR
modifications: SIGNAL (1)..(19)
B7: A298I: modified GLD: SEQ ID NO: 1 with substitution A298I (protein, listed as Aspergillus terreus)
chain: MLGKLSFLSALSLAVAAPLSNSTSAKYDYIVIGGGTSGLAVANRLSEDPNVNVLILEAGGSVWNNPNVTNVDGYGLAFGSDIDWQYQSVNQPYGGNLSQVLRAGKALGGTSTINGMAYTRAEDVQIDAWETIGNTGWTWKNLFPYYRKSENFTVPTKSQTSLGASYEAGAHGHEGPLDVAFTQIESNNLTTYLNRTFQGMGLPWTEDVNGGKMRGFNLYPSTVNLEEYVREDAARAYYWPYKSRPNLHVLLNTFANRIVWDGEAHDGHITASGVEITSRNGTVRVINAEKEVIVSAGILKSPAILELSGIGNPSVLDKHNIPVKVNLPTVGENLQDQVNSHMDASGNTSISGTKAVSYPDVYDVFGDEAESVAKQIRANLKQYAADTAKANGNIMKAADLERLFEVQYDLIFKGRVPIAEVLNYPGSATSVFAEFWALLPFARGSVHIGSSNPAEFPVINPNYFMLDWDAKSYVAVAKYIRRSFESYPLSSIVKESTPGYDVIPRNASEQSWKEWVFDKNYRSNFHPVGTAAMMPREIGGVVDERLNVYGTTNVRVVDASVLPFQVCGHLVSTLYAVAERAADLIKADAGRR
modifications: SIGNAL (1)..(19)

Columns and labels:
[1] = Relative enzymatic activity of GLD (DCIP/1-m-PMS, plate reader, yeast culture supernatant) with 1,10-phenanthroline present; assay type: biochemical; conditions: site-specific mutants, inhibitor final concentration 1 mM
Method: (§1) The susceptibility defined in the present specification is evaluated in terms of a relative activity that is determined in a system wherein the inhibitor coexists or not. The relative activity is derived from a relative value (%) of an enzymatic activity (a sample value) obtained with the addition of the inhibitor in the determination of the enzymatic activity described in the present specification as compared with an enzymatic activity (a blank value) as “100%” obtained without the addition of the inhibitor in the same determination. Thus, the higher the relative activity is, the less the susceptibility to the inhibitor is (or the more the susceptibility to the inhibitor is reduced), vice versa.
(§2) The enzymatic activity is determined in the following manner in Examples 3 and 6 wherein a plate reader (Japan Molecular Device Corporation, SpectraMax Plus384) is used. Thus, culture supernatant that had been diluted in advance with an appropriate magnification is added to a 96-well microplate with an amount of 100 μl per well. A reagent for the determination of the enzymatic activity comprising phosphate buffer (pH 7.0), 1.0 M D-glucose, 3 mM DCIP, 3 mM 1-m-PMS and methanol with a volume ratio of 0.1:1:0.14:0.2:0.06 is added to the 96-well microplate with an amount of 100 μl per well, and a change in the absorbance of DCIP at 600 nm (ΔABS/min) is then determined. The enzymatic activity can be calculated by conversion in proportion to a change in the absorbance of an enzyme solution for which the enzymatic activity has already been known by the above-mentioned activity determination procedure using the spectrophotometer.
(§3) In the following examples, a value of the enzymatic activity determined by the spectrometer or plate reader using the above reagent composition is considered as a blank value. On the other hand, a sample value is determined using a methanol solution comprising the inhibitor such as 1,10-phenanthroline or proflavin hydrochloride at a final concentration of 1 mM instead of the methanol. Enzymatic activity (unit/mL)=(−ΔABS/16.3)×3.0/0.05×(Dilution ratio of enzyme) [Equation 1]
Into each well of a 96-well microplate (manufactured by Nunc, Inc.), a YPD medium containing 125 μL of 1.0% (w/v) yeast extract (manufactured by BD), 2.0% (w/v) tryptone (manufactured by BD), 2.0% (w/v) glucose (manufactured by Wako Pure Chemical Industries, Ltd.) was dispensed, and the transformant colonies obtained in Example 2 were inoculated thereinto one by one.
After shaking culture at 30° C. and 1,000 rpm for 24 hours, the culture mixture was centrifuged and the supernatant was collected.
According to the above-mentioned method for the determination of enzymatic activity, a blank value and a sample value were determined using a plate reader, and the relative activity (%) was obtained by dividing the sample value by the blank value.

[2] = Relative enzymatic activity of GLD (DCIP/1-m-PMS, plate reader, yeast culture supernatant) with proflavin hydrochloride present; assay type: biochemical; conditions: site-specific mutants, inhibitor final concentration 1 mM
Method: as §1, §2, §3

Molecule	Relative Activity [%] 1,10-Phenanthroline [1] [%]	Relative Activity [%] Proflavin hydrochloride [2] [%]
B1	70.1	48.3
B2	94.2	57.9
B3	96.2	55.6
B4	96.7	67.7
B5	73.6	55.0
B6	62.2	51.2
B7	73.7	43.8
